Source: patent US9637764B2, “Methods of producing 7-carbon chemicals via carbon chain elongation associated with cyclohexane carboxylate synthesis” (INVISTA North America S.á r.l., priority 2012, dated 2017)

Tests used:
Assay type in all cases: biochemical
[1] = ω-transaminase activity assay, forward direction (pimelate semialdehyde to 7-aminoheptanoate), pyruvate formation by RP-HPLC; settings: for ω-transaminase activity for converting pimelate semialdehyde to 7-aminoheptanoate: cell free extract, 10 mM pimelate semialdehyde, 10 mM L-alanine, pH=7.5, 25° C., 4 h, against the empty vector control, FIG. 16; for ω-transaminase accepts pimelate semialdehyde and synthesizes 7-aminoheptanoate, concluded from the reversibility of the activity: conclusion from confirmed reversibility
Description: (§1) A sequence encoding an N-terminal His-tag was added to the genes from Chromobacterium violaceum, Pseudomonas syringae, Rhodobacter sphaeroides, and Vibrio Fluvialis encoding the ω-transaminases of SEQ ID NOs: 8, 10, 11 and 13, respectively (see FIGS. 7F and 7G) such that N-terminal HIS tagged ω-transaminases could be produced. Each of the resulting modified genes was cloned into a pET21a expression vector under control of the T7 promoter and each expression vector was transformed into a BL21[DE3] E. coli host. The resulting recombinant E. coli strains were cultivated at 37° C. in a 250 mL shake flask culture containing 50 mL LB media and antibiotic selection pressure, with shaking at 230 rpm. Each culture was induced overnight at 16° C. using 1 mM IPTG.
(§2) The pellet from each induced shake flask culture was harvested via centrifugation. Each pellet was resuspended and lysed via sonication. The cell debris was separated from the supernatant via centrifugation and the cell free extract was used immediately in enzyme activity assays.
Enzyme activity in the forward direction (i.e., pimelate semialdehyde to 7-aminoheptanoate) was confirmed for the transaminases of SEQ ID NO 10, SEQ ID NO 11 and SEQ ID NO 13. Enzyme activity assays were performed in a buffer composed of a final concentration of 50 mM HEPES buffer (pH=7.5), 10 mM pimelate semialdehyde, 10 mM L-alanine and 100 μM pyridoxyl 5′ phosphate. Each enzyme activity assay reaction was initiated by adding a cell free extract of the ω-transaminase gene product or the empty vector control to the assay buffer containing the pimelate semialdehyde and incubated at 25° C. for 4 h, with shaking at 250 rpm. The formation of pyruvate was quantified via RP-HPLC.

[2] = ω-transaminase activity assay, 7-aminoheptanol to 7-oxoheptanol, L-alanine formation by RP-HPLC; settings: for ω-transaminase activity for converting 7-aminoheptanol to 7-oxoheptanol: cell free extract, 10 mM 7-aminoheptanol, 10 mM pyruvate, pH=7.5, 25° C., 4 h, against the empty vector control, FIG. 19; for ω-transaminase accepts 7-oxoheptanol and forms 7-aminoheptanol, concluded from reversibility: conclusion given the reversibility of the ω-transaminase activity (Example 2)
Description: A nucleotide sequence encoding an N-terminal His-tag was added to the Chromobacterium violaceum, Pseudomonas syringae and Rhodobacter sphaeroides genes encoding the ω-transaminases of SEQ ID NOs: 8, 10 and 11, respectively (see FIGS. 7F and 7G) such that N-terminal HIS tagged ω-transaminases could be produced. The modified genes were cloned into a pET21a expression vector under the T7 promoter. Each expression vector was transformed into a BL21[DE3] E. coli host. Each resulting recombinant E. coli strain were cultivated at 37° C. in a 250 mL shake flask culture containing 50 mL LB media and antibiotic selection pressure, with shaking at 230 rpm. Each culture was induced overnight at 16° C. using 1 mM IPTG.
as §2
Enzyme activity assays in the reverse direction (i.e., 7-aminoheptanol to 7-oxoheptanol) were performed in a buffer composed of a final concentration of 50 mM HEPES buffer (pH=7.5), 10 mM 7-aminoheptanol, 10 mM pyruvate, and 100 μM pyridoxyl 5′ phosphate. Each enzyme activity assay reaction was initiated by adding cell free extract of the ω-transaminase gene product or the empty vector control to the assay buffer containing the 7-aminoheptanol and then incubated at 25° C. for 4 h, with shaking at 250 rpm. The formation of L-alanine was quantified via RP-HPLC.

[3] = ω-transaminase activity assay, reverse direction (7-aminoheptanoate to pimelate semialdehyde), L-alanine formation by RP-HPLC; settings: cell free extract, 10 mM 7-aminoheptanoate, 10 mM pyruvate, pH=7.5, 25° C., 4 h; against the empty vector control; FIG. 15
Description: as §1, §2
Enzyme activity assays in the reverse direction (i.e., 7-aminoheptanoate to pimelate semialdehyde) were performed in a buffer composed of a final concentration of 50 mM HEPES buffer (pH=7.5), 10 mM 7-aminoheptanoate, 10 mM pyruvate and 100 μM pyridoxyl 5′ phosphate. Each enzyme activity assay reaction was initiated by adding cell free extract of the ω-transaminase gene product or the empty vector control to the assay buffer containing the 7-aminoheptanoate and incubated at 25° C. for 4 h, with shaking at 250 rpm. The formation of L-alanine from pyruvate was quantified via RP-HPLC.

[4] = Carboxylate reductase activity assay, N7-acetyl-7-aminoheptanoate to N7-acetyl-7-aminoheptanal (NADPH consumption, absorbance at 340 nm); settings: purified enzyme enhanced by the gene product of sfp, 2 mM N7-acetyl-7-aminoheptanoate, 1 mM ATP, 1 mM NADPH, pH=7.5, room temperature, 20 min; against the empty vector control; FIG. 12
Description: The activity of each of the N-terminal His-tagged carboxylate reductases of SEQ ID NOs: 3, 6, and 7 (see Examples 4, and FIGS. 7B, 7E, and 7F) for converting N7-acetyl-7-aminoheptanoate to N7-acetyl-7-aminoheptanal was assayed in triplicate in a buffer composed of a final concentration of 50 mM HEPES buffer (pH=7.5), 2 mM N7-acetyl-7-aminoheptanoate, 10 mM MgCl2, 1 mM ATP, and 1 mM NADPH. The assays were initiated by adding purified carboxylate reductase and phosphopantetheine transferase or the empty vector control to the assay buffer containing the N7-acetyl-7-aminoheptanoate then incubated at room temperature for 20 min. The consumption of NADPH was monitored by absorbance at 340 nm.

Molecule	ω-transaminase activity for converting pimelate semialdehyde to 7-aminoheptanoate [1]	ω-transaminase accepts pimelate semialdehyde and synthesizes 7-aminoheptanoate, concluded from the reversibility of the activity [1]	ω-transaminase activity for converting 7-aminoheptanol to 7-oxoheptanol [2]	ω-transaminase accepts 7-oxoheptanol and forms 7-aminoheptanol, concluded from reversibility [2]	ω-transaminase activity for converting 7-aminoheptanoate to pimelate semialdehyde [3]	carboxylate reductase activity for converting N7-acetyl-7-aminoheptanoate to N7-acetyl-7-aminoheptanal [4]
SEQ ID NO 11: Rhodobacter sphaeroides ω-transaminase, Genbank Accession No. ABA81135.1	accepted pimelate semialdehyde as substrate	accepted pimelate semialdehyde as substrate and synthesized 7-aminoheptanoate	accepted 7-aminoheptanol as substrate	accept 7-oxoheptanol as substrate	accepted 7-aminoheptanote as substrate	
SEQ ID NO 10: Pseudomonas syringae ω-transaminase, Genbank Accession No. AAY39893.1 (protein, listed as Pseudomonas syringae) MSANNPQTLEWQALSSEHHLAPFSDYKQLKEKGPRIITRAEGVYLWDSEGNKILDGMSGLWCVAIGYGREELADAASKQMRELPYYNLFFQTAHPPVLELAKAISDIAPEGMNHVFFTGSGSEGNDTMLRMVRHYWALKGQPNKKTIISRVNGYHGSTVAGASLGGMTYMHEQGDLPIPGVVHIPQPYWFGEGGDMTPDEFGIWAAEQLEKKILELGVENVGAFIAEPIQGAGGVIVPPDSYWPKIKEILSRYDILFAADEVICGFGRTSEWFGSDFYGLRPDMMTIAKGLTSGYVPMGGLIVRDEIVAVLNEGGDFNHGFTYSGHPVAAAVALENIRILREEKIVERVRSETAPYLQKRLRELSDHPLVGEVRGVGLLGAIELVKDKTTRERYTDKGAGMICRTFCFDNGLIMRAVGDTMIIAPPLVISFAQIDELVEKARTCLDLTLAVLQG	accepted pimelate semialdehyde as substrate	accepted pimelate semialdehyde as substrate and synthesized 7-aminoheptanoate	accepted 7-aminoheptanol as substrate	accept 7-oxoheptanol as substrate	accepted 7-aminoheptanote as substrate	
SEQ ID NO 8: Chromobacterium violaceum ω-transaminase, Genbank Accession No. AAQ59697.1 (protein, listed as Chromobacterium violaceum) MQKQRTTSQWRELDAAHHLHPFTDTASLNQAGARVMTRGEGVYLWDSEGNKIIDGMAGLWCVNVGYGRKDFAEAARRQMEELPFYNTFFKTTHPAVVELSSLLAEVTPAGFDRVFYTNSGSESVDTMIRMVRRYWDVQGKPEKKTLIGRWNGYHGSTIGGASLGGMKYMHEQGDLPIPGMAHIEQPWWYKHGKDMTPDEFGVVAARWLEEKILEIGADKVAAFVGEPIQGAGGVIVPPATYWPEIERICRKYDVLLVADEVICGFGRTGEWFGHQHFGFQPDLFTAAKGLSSGYLPIGAVFVGKRVAEGLIAGGDFNHGFTYSGHPVCAAVAHANVAALRDEGIVQRVKDDIGPYMQKRWRETFSRFEHVDDVRGVGMVQAFTLVKNKAKRELFPDFGEIGTLCRDIFFRNNLIMRACGDHIVSAPPLVMTRAEVDEMLAVAERCLEEFEQTLKARGLA		accepted pimelate semialdehyde as substrate and synthesized 7-aminoheptanoate	accepted 7-aminoheptanol as substrate	accept 7-oxoheptanol as substrate	accepted 7-aminoheptanote as substrate	
SEQ ID NO 3: Mycobacterium smegmatis carboxylate reductase, Genbank Accession No. ABK71854.1 (protein, listed as Mycobacterium smegmatis) MTSDVHDATDGVTETALDDEQSTRRIAELYATDPEFAAAAPLPAVVDAAHKPGLRLAEILQTLFTGYGDRPALGYRARELATDEGGRTVTRLLPRFDTLTYAQVWSRVQAVAAALRHNFAQPIYPGDAVATIGFASPDYLTLDLVCAYLGLVSVPLQHNAPVSRLAPILAEVEPRILTVSAEYLDLAVESVRDVNSVSQLVVFDHHPEVDDHRDALARAREQLAGKGIAVTTLDAIADEGAGLPAEPIYTADHDQRLAMILYTSGSTGAPKGAMYTEAMVARLWTMSFITGDPTPVINVNFMPLNHLGGRIPISTAVQNGGTSYFVPESDMSTLFEDLALVRPTELGLVPRVADMLYQHHLATVDRLVTQGADELTAEKQAGAELREQVLGGRVITGFVSTAPLAAEMRAFLDITLGAHIVDGYGLTETGAVTRDGVIVRPPVIDYKLIDVPELGYFSTDKPYPRGELLVRSQTLTPGYYKRPEVTASVFDRDGYYHTGDVMAETAPDHLVYVDRRNNVLKLAQGEFVAVANLEAVFSGAALVRQIFVYGNSERSFLLAVVVPTPEALEQYDPAALKAALADSLQRTARDAELQSYEVPADFIVETEPFSAANGLLSGVGKLLRPNLKDRYGQRLEQMYADIAATQANQLRELRRAAATQPVIDTLTQAAATILGTGSEVASDAHFTDLGGDSLSALTLSNLLSDFFGFEVPVGTIVNPATNLAQLAQHIEAQRTAGDRRPSFTTVHGADATEIRASELTLDKFIDAETLRAAPGLPKVTTEPRTVLLSGANGWLGRFLTLQWLERLAPVGGTLITIVRGRDDAAARARLTQAYDTDPELSRRFAELADRHLRVVAGDIGDPNLGLTPEIWHRLAAEVDLVVHPAALVNHVLPYRQLFGPNVVGTAEVIKLALTERIKPVTYLSTVSVAMGIPDFEEDGDIRTVSPVRPLDGGYANGYGNSKWAGEVLLREAHDLCGLPVATFRSDMILAHPRYRGQVNVPDMFTRLLLSLLITGVAPRSFYIGDGERPRAHYPGLTVDFVAEAVTTLGAQQREGYVSYDVMNPHDDGISLDVFVDWLIRAGHPIDRVDDYDDWVRRFETALTALPEKRRAQTVLPLLHAFRAPQAPLRGAPEPTEVFHAAVRTAKVGPGDIPHLDEALIDKYIRDLREFGLI						accepted N7-acetyl-7-aminoheptanoate as substrate
SEQ ID NO 13: Vibrio fluvialis ω-transaminase, Genbank Accession No. AEA39183.1 (protein, listed as Vibrio fluvialis) MNKPQSWEARAETYSLYGFTDMPSLHQRGTVVVTHGEGPYIVDVNGRRYLDANSGLWNMVAGFDHKGLIDAAKAQYERFPGYHAFFGRMSDQTVMLSEKLVEVSPFDSGRVFYTNSGSEANDTMVKMLWFLHAAEGKPQKRKILTRWNAYHGVTAVSASMTGKPYNSVFGLPLPGFVHLTCPHYWRYGEEGETEEQFVARLARELEETIQREGADTIAGFFAEPVMGAGGVIPPAKGYFQAILPILRKYDIPVISDEVICGFGRTGNTWGCVTYDFTPDAIISSKNLTAGFFPMGAVILGPELSKRLETAIEAIEEFPHGFTASGHPVGCAIALKAIDVVMNEGLAENVRRLAPRFEERLKHIAERPNIGEYRGIGFMWALEAVKDKASKTPFDGNLSVSERIANTCTDLGLICRPLGQSVVLCPPFILTEAQMDEMFDKLEKALDKVFAEVA	accepted pimelate semialdehyde as substrate	accepted pimelate semialdehyde as substrate and synthesized 7-aminoheptanoate			accepted 7-aminoheptanote as substrate	
